Several values for one entry are separate records, joined by “and”; a condition that tells them apart may be missing. Identical values can stand only once.
System: peripheral blood immune cells
Test: Comparison of 2-step and pre-complexed Siglec-Fc binding, flow cytometry (Figure 3e-g)
Assay type: cell-based, human
Conditions: Figure 3g

B1: Siglec-9-Fc R120A (protein, UniProt Q9Y336 18-348, looked up, variant R120A)
extracellular domain: QTSKLLTMQSSVTVQEGLCVHVPCSFSYPSHGWIYPGPVVHGYWFREGANTDQDAPVATNNPARAVWEETRDRFHLLGDPHTKNCTLSIRDARRSDAGRYFFAMEKGSIKWNYKHHRLSVNVTALTHRPNILIPGTLESGCPQNLTCSVPWACEQGTPPMISWIGTSVSPLDPSTTRSSVLTLIPQPQDHGTSLTCQVTFPGASVTTNKTVHLNVSYPPQNLTMTVFQGDGTVSTVLGNGSSLSLPEGQSLRLVCAVDAVDSNPPARLSLSWRGLTLCPSQPSNPGVLELPWVHLRDAAEFTCRAQNPLGSQQVYLNVSLQSKATSGVTQG
modifications: extracellular domain fused to human IgG1 Fc
2-Step
  Siglec-9-Fc Binding: 43.3 and 45.1 and 40.9
Precomplex
  Siglec-9-Fc Binding: 42 and 53.2 and 47.5
